Reference: US20250002945, “NEW TALE PROTEIN SCAFFOLDS WITH IMPROVED ON-TARGET/OFF-TARGET ACTIVITY RATIOS” (CELLECTIS SA, published 2025)

How the values were obtained:
Assay in all cases: cell_activity; T cells, mostly above 70%
Details in all cases: tags: SV40 NLS; FokI fusion
[1] = target: T1, CISH (2) right V2 TALEN (synthetic, UniProt Q56830 SEQ:15-719)
T1 chain: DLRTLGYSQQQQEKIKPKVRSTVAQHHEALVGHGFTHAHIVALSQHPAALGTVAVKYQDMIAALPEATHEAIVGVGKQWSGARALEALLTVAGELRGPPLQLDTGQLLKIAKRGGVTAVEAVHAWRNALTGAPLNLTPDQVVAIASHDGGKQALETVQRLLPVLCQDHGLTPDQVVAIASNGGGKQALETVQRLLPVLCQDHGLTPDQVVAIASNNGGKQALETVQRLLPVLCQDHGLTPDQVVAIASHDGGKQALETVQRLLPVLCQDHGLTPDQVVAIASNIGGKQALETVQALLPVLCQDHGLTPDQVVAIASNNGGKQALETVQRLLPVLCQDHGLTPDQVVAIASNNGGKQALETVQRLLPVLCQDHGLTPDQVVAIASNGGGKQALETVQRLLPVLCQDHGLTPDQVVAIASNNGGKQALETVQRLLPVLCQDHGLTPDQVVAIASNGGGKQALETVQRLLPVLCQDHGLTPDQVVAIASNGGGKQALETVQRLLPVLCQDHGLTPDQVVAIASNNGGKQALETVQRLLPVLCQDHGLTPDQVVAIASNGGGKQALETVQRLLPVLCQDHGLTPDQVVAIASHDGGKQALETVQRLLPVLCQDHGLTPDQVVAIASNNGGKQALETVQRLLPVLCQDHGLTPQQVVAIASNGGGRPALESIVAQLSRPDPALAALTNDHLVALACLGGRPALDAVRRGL

[2] = target: T2, TIGIT right V2 TALEN (synthetic, UniProt Q56830 SEQ:15-719)
T2 chain: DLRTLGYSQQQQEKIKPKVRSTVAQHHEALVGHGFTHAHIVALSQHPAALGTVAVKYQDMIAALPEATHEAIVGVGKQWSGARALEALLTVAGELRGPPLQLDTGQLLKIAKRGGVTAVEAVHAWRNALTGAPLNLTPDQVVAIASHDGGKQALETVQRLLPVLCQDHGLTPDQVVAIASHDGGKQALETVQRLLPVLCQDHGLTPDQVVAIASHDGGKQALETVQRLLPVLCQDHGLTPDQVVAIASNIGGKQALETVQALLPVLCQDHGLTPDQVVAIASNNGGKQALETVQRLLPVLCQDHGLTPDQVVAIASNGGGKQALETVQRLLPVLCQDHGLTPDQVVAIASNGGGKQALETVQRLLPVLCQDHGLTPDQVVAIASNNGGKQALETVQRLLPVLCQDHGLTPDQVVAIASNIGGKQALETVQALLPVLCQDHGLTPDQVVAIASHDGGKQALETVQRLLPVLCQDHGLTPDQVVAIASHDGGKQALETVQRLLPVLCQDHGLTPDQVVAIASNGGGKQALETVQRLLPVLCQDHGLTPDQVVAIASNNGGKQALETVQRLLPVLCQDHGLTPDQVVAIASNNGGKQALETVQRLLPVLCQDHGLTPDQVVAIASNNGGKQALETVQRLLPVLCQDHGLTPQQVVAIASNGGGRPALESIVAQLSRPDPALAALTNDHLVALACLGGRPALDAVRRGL

[3] = target: T3, CISH (2) left V2 TALEN (synthetic, UniProt Q56830 SEQ:15-719)
T3 chain: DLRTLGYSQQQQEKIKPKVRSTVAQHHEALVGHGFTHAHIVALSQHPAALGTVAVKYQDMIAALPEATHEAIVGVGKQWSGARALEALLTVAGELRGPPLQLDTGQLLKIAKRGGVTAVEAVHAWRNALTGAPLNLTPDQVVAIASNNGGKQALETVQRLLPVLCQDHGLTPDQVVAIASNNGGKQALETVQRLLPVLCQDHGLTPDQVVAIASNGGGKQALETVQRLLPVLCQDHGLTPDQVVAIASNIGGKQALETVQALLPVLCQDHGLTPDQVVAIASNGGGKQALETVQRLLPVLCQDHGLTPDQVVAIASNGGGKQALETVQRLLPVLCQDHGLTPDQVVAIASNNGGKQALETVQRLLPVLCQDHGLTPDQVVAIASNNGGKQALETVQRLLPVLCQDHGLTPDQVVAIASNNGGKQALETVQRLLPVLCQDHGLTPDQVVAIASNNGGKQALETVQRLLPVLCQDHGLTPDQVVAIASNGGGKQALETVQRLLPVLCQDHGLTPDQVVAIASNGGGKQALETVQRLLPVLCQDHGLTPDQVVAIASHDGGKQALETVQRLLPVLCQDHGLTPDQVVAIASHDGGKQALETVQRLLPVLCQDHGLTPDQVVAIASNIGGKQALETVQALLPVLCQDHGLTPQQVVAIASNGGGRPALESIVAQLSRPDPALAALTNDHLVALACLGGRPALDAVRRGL

[4] = target: T4, CISH (3) left V2 TALEN (synthetic, UniProt Q56830 SEQ:15-719)
T4 chain: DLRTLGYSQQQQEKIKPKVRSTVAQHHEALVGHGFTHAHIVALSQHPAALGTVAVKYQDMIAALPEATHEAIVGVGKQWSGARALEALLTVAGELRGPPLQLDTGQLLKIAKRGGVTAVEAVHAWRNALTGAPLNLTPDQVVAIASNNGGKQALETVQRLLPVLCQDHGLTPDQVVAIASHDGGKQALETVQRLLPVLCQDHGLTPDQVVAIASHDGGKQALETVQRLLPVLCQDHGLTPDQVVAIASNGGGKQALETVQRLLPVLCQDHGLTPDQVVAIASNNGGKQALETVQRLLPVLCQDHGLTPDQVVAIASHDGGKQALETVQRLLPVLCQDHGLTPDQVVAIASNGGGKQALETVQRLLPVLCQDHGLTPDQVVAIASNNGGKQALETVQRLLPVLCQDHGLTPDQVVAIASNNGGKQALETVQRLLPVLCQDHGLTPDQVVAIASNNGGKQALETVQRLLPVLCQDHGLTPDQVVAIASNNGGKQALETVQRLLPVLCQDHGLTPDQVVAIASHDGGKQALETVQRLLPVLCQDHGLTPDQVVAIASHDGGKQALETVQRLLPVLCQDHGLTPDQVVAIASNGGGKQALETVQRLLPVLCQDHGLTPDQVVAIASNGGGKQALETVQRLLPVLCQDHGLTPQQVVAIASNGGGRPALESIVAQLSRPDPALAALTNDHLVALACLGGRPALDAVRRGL

[5] = target: T5, TIGIT left V2 TALEN (synthetic, UniProt Q56830 SEQ:15-719)
T5 chain: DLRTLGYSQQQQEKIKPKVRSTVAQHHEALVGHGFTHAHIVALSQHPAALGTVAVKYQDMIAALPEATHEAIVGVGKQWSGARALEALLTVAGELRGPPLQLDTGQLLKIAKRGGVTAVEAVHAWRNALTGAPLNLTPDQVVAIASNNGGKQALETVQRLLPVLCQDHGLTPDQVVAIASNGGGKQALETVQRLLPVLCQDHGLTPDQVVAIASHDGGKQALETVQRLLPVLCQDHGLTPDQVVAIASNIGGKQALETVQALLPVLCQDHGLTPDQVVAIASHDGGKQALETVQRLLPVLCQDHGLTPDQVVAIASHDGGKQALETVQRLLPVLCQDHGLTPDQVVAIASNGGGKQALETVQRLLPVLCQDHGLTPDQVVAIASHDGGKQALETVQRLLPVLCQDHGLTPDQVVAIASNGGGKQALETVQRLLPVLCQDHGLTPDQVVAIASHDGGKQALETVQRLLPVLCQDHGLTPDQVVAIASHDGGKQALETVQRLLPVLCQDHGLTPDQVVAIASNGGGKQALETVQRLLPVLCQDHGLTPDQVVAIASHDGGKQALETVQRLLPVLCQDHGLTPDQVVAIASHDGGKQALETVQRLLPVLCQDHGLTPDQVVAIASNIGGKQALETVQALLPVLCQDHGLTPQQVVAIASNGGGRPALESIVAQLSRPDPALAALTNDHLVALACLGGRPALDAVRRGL

[6] = target: T6, CISH (1) left V2 TALEN (synthetic, UniProt Q56830 SEQ:15-719)
T6 chain: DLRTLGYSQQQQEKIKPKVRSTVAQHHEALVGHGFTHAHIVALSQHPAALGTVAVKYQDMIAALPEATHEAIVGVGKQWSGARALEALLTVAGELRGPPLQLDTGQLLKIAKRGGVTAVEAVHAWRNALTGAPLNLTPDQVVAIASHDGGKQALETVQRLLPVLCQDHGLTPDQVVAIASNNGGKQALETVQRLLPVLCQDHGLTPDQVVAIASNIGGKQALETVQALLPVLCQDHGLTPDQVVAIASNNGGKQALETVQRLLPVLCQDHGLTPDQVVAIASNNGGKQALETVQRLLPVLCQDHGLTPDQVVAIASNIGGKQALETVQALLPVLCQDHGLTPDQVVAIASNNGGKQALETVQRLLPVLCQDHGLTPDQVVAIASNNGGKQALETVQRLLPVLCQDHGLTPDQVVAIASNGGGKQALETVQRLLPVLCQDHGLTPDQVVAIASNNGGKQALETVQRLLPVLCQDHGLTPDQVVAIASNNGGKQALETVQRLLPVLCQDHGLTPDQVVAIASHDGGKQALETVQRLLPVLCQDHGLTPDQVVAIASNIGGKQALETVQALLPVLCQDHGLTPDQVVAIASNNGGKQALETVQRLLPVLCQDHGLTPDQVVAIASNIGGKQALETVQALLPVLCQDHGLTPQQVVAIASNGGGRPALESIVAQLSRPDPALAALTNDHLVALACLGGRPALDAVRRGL

[7] = target: T7, CISH (1) right V2 TALEN (synthetic, UniProt Q56830 SEQ:15-719)
T7 chain: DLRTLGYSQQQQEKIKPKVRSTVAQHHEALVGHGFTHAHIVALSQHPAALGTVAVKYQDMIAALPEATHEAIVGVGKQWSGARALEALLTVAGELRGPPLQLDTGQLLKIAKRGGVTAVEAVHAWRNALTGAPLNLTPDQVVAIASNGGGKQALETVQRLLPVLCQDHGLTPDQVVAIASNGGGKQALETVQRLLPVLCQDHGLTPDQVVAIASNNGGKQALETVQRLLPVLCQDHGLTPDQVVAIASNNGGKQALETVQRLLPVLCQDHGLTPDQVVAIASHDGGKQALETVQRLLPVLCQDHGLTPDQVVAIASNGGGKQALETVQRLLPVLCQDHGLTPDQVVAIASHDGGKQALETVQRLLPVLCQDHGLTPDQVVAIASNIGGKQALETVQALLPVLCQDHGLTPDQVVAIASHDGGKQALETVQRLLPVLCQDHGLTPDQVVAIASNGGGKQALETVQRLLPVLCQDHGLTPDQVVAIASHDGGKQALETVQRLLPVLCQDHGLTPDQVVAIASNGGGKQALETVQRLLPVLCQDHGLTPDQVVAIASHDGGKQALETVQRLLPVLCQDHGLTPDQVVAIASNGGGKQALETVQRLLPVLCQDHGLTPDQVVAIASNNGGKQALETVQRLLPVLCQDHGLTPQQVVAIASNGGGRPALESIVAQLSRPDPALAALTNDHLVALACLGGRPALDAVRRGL

B1: CISH (2) right half-site (dsDNA)
DNA 1: CCGACAACACCTGCAGA
DNA 2: TCTGCAGGTGTTGTCGG
Q: For B1, which activity [1] is on record?
A: > 50 % indels

B2: TIGIT right half-site (dsDNA)
DNA 1: ACCCAGGTCAACTGGGA
DNA 2: TCCCAGTTGACCTGGGT
Q: B2 was tested. Which activity [2] did it give?
A: > 50 % indels

B3: CISH (2) left half-site (dsDNA)
DNA 1: TGGTATTGGGGTTCCAT
DNA 2: ATGGAACCCCAATACCA
Q: B3 was tested. Which activity [3] did it give?
A: > 50 % indels

B4: CISH (3) left half-site (dsDNA)
DNA 1: TGCCTGCTGGGGCCTTC
DNA 2: GAAGGCCCCAGCAGGCA
Q: B4 was tested. Which activity [4] did it give?
A: > 50 % indels

B5: TIGIT left half-site (dsDNA)
DNA 1: TGTCACCTCTCCTCCAC
DNA 2: GTGGAGGAGAGGTGACA
Q: B5 was tested. Which activity [5] did it give?
A: > 50 % indels

B6: CISH (1) left half-site (dsDNA)
DNA 1: TCGAGGAGGTGGCAGAG
DNA 2: CTCTGCCACCTCCTCGA
Q: Which activity [6] does the source give for B6 here?
A: > 50 % indels

B7: CISH (1) right half-site (dsDNA)
DNA 1: ACAGAGAGTGAGCCAAA
DNA 2: TTTGGCTCACTCTCTGT
Q: How did the activity [7] turn out when B7 was run?
A: > 50 % indels
